This test addresses WT SOD1, purified from E. coli (human) (UniProt P00441). As to the kind of experiment: NMR titration; 100 uM WT [U-15N]-apo-SOD1^SH in PBS pH 7.4 titrated with unlabelled CCS-D2 up to three equivalents, anaerobic, 298 K, 900 MHz.
UniProt P00441, sequence (P00441 whole entry): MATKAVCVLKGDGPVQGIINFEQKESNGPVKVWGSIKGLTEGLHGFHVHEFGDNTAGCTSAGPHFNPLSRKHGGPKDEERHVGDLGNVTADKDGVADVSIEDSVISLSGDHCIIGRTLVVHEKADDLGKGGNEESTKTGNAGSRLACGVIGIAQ

With “CCS-D2, purified from E. coli (domain or fragment)”, the percent of apo-SOD1^SH still free with 1 equivalent of CCS-D2 came to 20%.

These data come from article PMC5727297.
